{"source": "the NTF2 design screens of Basanta et al. (2020)"}
{"test": "protease stability score; higher = more stable; yeast display proteolysis, trypsin and chymotrypsin;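 also: relative to predicted unfolded state with 0 unfolded-like and 1 meaning tenfold more protease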"}
{"sequence": "DEEEEHFKWLVKLIFDAYLTGDEEVLYERADPNVRIDFNGVELHGREEMQRHLEHLMKKFKGLRIELKHFHIQGDKMFFQTEYRYNGKTVEARLFFDVVNGRLKRIIIEHR", "protease stability score": 1.48}
{"sequence": "DEEESIERELSRRWLHWFITGDEERAKKLADPRARYHQGDKEIHGWDNLRKFLFEILEKIPNLRIIIRDSDVINGRIHYDTELHIDGVHIKTHLIIVIVDGRLKELHVEEH", "protease stability score": 0.06}
{"sequence": "SESEEIAHNFTELLIKTLNTGDEKLYRELADPNARIEINGVELVGWKKANELLQRIDHERVRRVKLKDIEVQGDKVIVRTHEEREINIGDKRLHIRTDVEIIWVKINGKWILHEISVH", "protease stability score": 1.23}
{"sequence": "DEEDKWETHFLKVLEDSLKTGDETSLERMADPTARLSVGDKEHHGRDLLFFWIHKLLREAGVDKVESELHDEERQGEKVIVDIHLRVGDKVLRVIFYIYKYNGQWFIRSIEVE", "protease stability score": 1.04}
{"sequence": "TEEESQAREALLIVLELLRTGDWRSMEKYADPHTLQVFNGRHLHGRELFSDFLEEYERKLGVDRIRVHIHHLDVINGQLRVDTTIDYGDKHHRMIIIINKYDGRWELEQLRIT", "protease stability score": 0.341}
{"sequence": "SEEEQELYRTAKLMLESMTTGNEELNKRLADPNVRIHWNGVENHGWRIFRENLEELRIHLKDWRFRRFDLYNGVALLDIEVQIDIEIGDKRIEYETQTILLLFVVNGRIKSISMRIL", "protease stability score": 1.07}
{"sequence": "SEDEELVERALQEFLEHLETGDFETLRDQVDPNARVDIDGRERIGRHDILKHWEEWRWHEIKLKHVEFQGDFVHLDGKVRITIDGKEISTHVKILVYKVNGRWLMKELRIG", "protease stability score": 2.27}
{"sequence": "DEEKEEAEHFFHFFFHLLITGDEEQWFRLADPNMRVRVNGVLLHGREIWERLVQEIRVNHMHLDRMEIHVFNGRMDVYIIGHVRRIIGDKEETTTVHIRIVMFKVNGRWVIHAVEEDYR", "protease stability score": 1.81}
{"sequence": "SEKHEDAHRFYEQYLEALRTGDEDLLTELIDPHVKVEIGDKHYHGRDWMIEILRKRKERFPGLKIIIILRRMHIIGDKVFMDVEVRVHQGEKTETHRFEMIVNKINGRWLVDSIHIE", "protease stability score": 2.08}
{"sequence": "DEEEKDVQKILKIMIESMKTGDEHTIERLVDPHVRLIINGKRLHGWELFVKIVHHEAEHARVDEIRIDHMHVIDGRAHLYLTIKRTVGDKHIKLDLEFIWSKFDGRWHVEEERRE", "protease stability score": 1.14}
{"sequence": "DEDEERVREFFELFFKALFTGDEEELKRLLDPHVKLIINGREFVGREQMTRLLNEIRVSWTELRIRRIERQGDKVIFDAEVHVERHQGDYHEQKTIKVILYMRKVDGRWLLESIEIR", "protease stability score": 2.38}
{"sequence": "SEEEKLLTDWLRELEEVTRTGDEESIMRMVDPNDKMDVGDKHRHGMHAQEVWIEVFRRQFGIDNFEVRLIINHRRIVDGQAHVDGELQLIYNGRTTSLRIELIIDKFDGRWLISSIRYN", "protease stability score": 1.19}
{"sequence": "DEEKEMNRHFLEHLKTAYETGDEDSIIKNIDPHYRIIVGDKDLIGMEHVKKWLHHARIHEIHPRRLEVQGNKITNDIHVVGEVNGVLRSTDQIWYLLKVDGRWLIESIEIK", "protease stability score": 1.11}
{"sequence": "DERDEYLHEWTRLLIELFETGNFEFLVEMMDPNVQIDIGDKHFIGWELAVHFLEEFLRQFKNARWEITRFRRYDGRIEMDTIMRINGREIKVKIIVIVIDGRVKSRHEEYR", "protease stability score": 0.595}
{"sequence": "DERDEQAEEAMKIWIHSVQTGNEDLLRRLVDPHVRITVGDKEIHGREQFAEYYHRLVTELRIHIHIHRITVINGQVHSHVEIRIQIGDKEISFETRMFILKVDGVWLFKREEVT", "protease stability score": 0.744}
{"sequence": "SEDEELARIIMHLLEHATKTGDERILRKLLDPHVKIRVNGKDLIGWEEEHRRHEKLGADHLHLELIFKDWEFVGDYIKVHGEMRVRVNQGDKTDERNYEVRFYLLKVNGRWILESIQIH", "protease stability score": 2.63}
{"sequence": "DEEHKFQHDISIFFMKLIETGDEDTLIDMADPNARSEINGKEVHGMEDAYKWWIDFLRQMGIKHLHVETFHVVNGQTKVHSRVHVGDKEFEVEIRLIIINGRLHEIEIIVRTR", "protease stability score": 1.21}
{"sequence": "DEDHELSKLAQEWFYKTMVTGDEETAERLADPNMRIDINGKSLHGRKWQRHIIRDLGVDHVEFHDVRTINGQLHISTTINVDGRNQHTHIIVLKIDGRWSLRSSEFK", "protease stability score": 0.614}
{"sequence": "SEEERVAIEHMRWVIRALLTGDEELLRHLFDPSTRFDFDGQHRIGMEDLVRFWRHLRVRRFEIEDERVHFQGDKIEARTEGRIQGDINGKNVEREIRVILIVMKIDGKWIIRIISHEVD", "protease stability score": 1.63}
{"sequence": "DEEEEALRLAFELIYTVLRTGDEEMWRRMADPDTKIDIGDKHFHGREHVEYVLRELHKRIDHIDHSHIDHVHVQGDKVHMDTTIVGTYDGQRTNLKTSFIVVKINGKWVMTSVRFR", "protease stability score": 1.38}
{"sequence": "DERHKMIKDFAHLMLRARKTGDWDVMTRLFDPNTRVTQGDFELHGMESFSDWLHELHRQVPNVVEHDHSVDAFDGRVHLKTEERINGRILRIRIIIIVVDGKIKELRIEVD", "protease stability score": 1.37}
{"sequence": "SELEKLAEEMLELFIEIFLTGDWRTFLRLADPHTRLNVDGKNNHGREEVRRHLEEELRQMRWHDVKIHDFDVIGEKAHVRLRVDGIINGRRIDFEMELEITVVNGVIKDVRVRRR", "protease stability score": 1.48}
{"sequence": "DHEEEIALEVAEKILKLWLTGDEEIMMELFDPNTRVEINGKKVHGRENVMHILHHEWREIRLKDLRIKRHESVGNKVHLDGRVNGQINGRKHSIHVRIDIEVVDGRITNISIEHS", "protease stability score": 1.44}
{"sequence": "HEEEKHREDFVRTWLHNLITGNFEHHRHLADPRVRIRIIVDGREQRIHGREEMIRWFREWMELFPGYYRHIEHSDIIGEYVHIEGQLEVNGKRLDVHIHLEVINGKIKHLTIDSR", "protease stability score": 1.09}
{"sequence": "HRDEELSEEILRLILEILRTGDEDELRRLIDPHVRVSIGDKEKHGREWYLELVNVAGIKYIELKRIHVIGDKAHFETYVHVDGRDISLQFIILKINGKWFITSIRIETR", "protease stability score": 1.4}
{"sequence": "SEHEKVYHDAIKIYQDNLKTGDEKRMEKFFDPNVIIHIGDKELVGRELVRHQATELARRVDHVEVHIKHVDVQGEKIRINGEIEIEINGRTIRFETHLVILKVNGRWIIHSEFIL", "protease stability score": 1.04}
{"sequence": "DEEEQQVEEVLRNMLRDFYTGDWKRLMKLADPHVQLDINGQLHHGREEAARFLIEWWEILGFKHSRLRHIDIQGEKLHIHGDKRVNGRTFELELIIIIINGRIRSEEIRVI", "protease stability score": 0.691}
{"sequence": "SEDEHKLRTMLELWLEAHRTGDEDLLRKLMDPDVRIHVGDKDFHGWDHEIELFRKELKRLGIDKIDIEVKRIDLQGDKVILEVIVHINGKEIHMIIYANKFNGRWHVKQIEIR", "protease stability score": 1.35}
{"sequence": "DESHQLMLELLEELFHLLLTGNEETILRLADPNTRLQINGQETHGRESARHYWQRFLEHWRLKDYRIRSLYSQGDKAIIHTEVVLHYNGRDFRVTTEIRLWVFDGKIHEIIIIIN", "protease stability score": 1.53}
{"sequence": "DEIHEKVQLAAEIFEEIVRTGDEELFMRYMDPHVRLIDENEIYHGMDIWHKWLHERHEKLGAKHEEVKTRSLDLQGEKLRVEGDFVVNVNGRTFHHRLHLIYRKIDGQWRYEQISLE", "protease stability score": 0.853}
{"sequence": "DEEKKLYHHIWDRLRRALETGNEEELHKLADPDVRVIIGDKHFHGRDELYRLTEEIRVVITEIRLHDKDHQGDKVILDVEERVNVQVDGKETEYRFRSTLYFVKINGRWTLRRIELK", "protease stability score": 1.52}
{"sequence": "TEEHEVALRFWRMFLEAITTGDEKRIKELLDPHVQIEINGKHLHGMETLIHRINEIRETWKHVEIKTVEFYNGQIHSHFRVHYVFHVNGKEIERDTDVLLILTKVDGRWHIKSIHIH", "protease stability score": 2.52}
{"sequence": "SEEEEILRHILERFANVLHTGDFDWLSKMADPHVRFDVNGREFHGREEVIQAVRDWRERLGIKHLHVKDIRLQGDKMHLNGRMEFDGVIEDTRIIHQVVDGRLRSIEIRTK", "protease stability score": 0.16}
{"sequence": "DEDTELLKHHLDIFRDAVRTGDEEKERKYADPDDRINVDGVIFHGWEESKRFYEHWRVKDFHVHDMKVQGDKADVESRLVVQINGREVIFRVKLIITKVNGRWKHTMLEIK", "protease stability score": 1.62}
{"sequence": "DENEDRIRHLLELHFHALETGDEKKTHDLFDPNTRVEVGDKTLHGRELVSKHVAEDLIKIKGLTVRIRDWNIVGDKVVVDSRVEFNGVRVETILVALKVDGRWLVKSIHIH", "protease stability score": 0.42}
{"sequence": "HELLKLVEEMARITVKLFMTGDWKTFKHLADPHVREIINGRTVHGMEKVVEHRKEFKEELWIESITIHDVEVQGEKAHLNTKLIGHVNGREVEVEIYVNIEIINGRWNLVEIDIR", "protease stability score": 1.76}
{"sequence": "DEDEEEMRRVVELLVRDHFTGNFEKLKDLFDPNAKSDVDGVSMVGREWLEFLKRYLGADHIEVRVRHEDYYGNKVHFHLEIISRYGDKEIHVDTEMVIDKVDGRWYVRETRFK", "protease stability score": 0.854}
{"sequence": "DEDDEAAEMAVRFFIEILLTGNENIHSKLLDPNVKVNIGEFESIGRKEVEKTFKEFVHHMWIRHIEVHKWSVYDGQVDVESRLDGQVNGQHVNVEVLIIIVKINGKWFLRSLDFR", "protease stability score": 1.71}
{"sequence": "SKHKEQTEHVMKTWEHAMRTGDEDRVSHLLDPNVRFEVGNKEFHGREEMSRHIVEMRFTELRLRDVETQGDKVHFEGEMRGIIDGKEETNKLIVIIYKVNGRWHIRSVHVE", "protease stability score": 0.618}
{"sequence": "SDWEDLVRMAFHHFIHSMRTGDEDIIHQLLDPEVKINVGDKVIHGREQAFDYIHTLVNRADHIRFRLDHLDVQGDFIEIRTTVDLTYGDKHHRMEVTFFSRKVDGVWLIERVQIK", "protease stability score": 1.27}
{"sequence": "DEDVKTLEHLLRLINDINRTGDEERWMHEADPNTLVIYDGVESHGRESVMKLYHKHWEQLRIEEIHIHHIKMQGNKATIHGRLRGEIDGREKSFTIHVHIILINGQIQSITFRIE", "protease stability score": 1.02}
{"sequence": "REEEEHAEKVVKLMLHWLHTGDEEKFINNADPNVKLQIDGQRIHGWDDWERRMNEKLQRVDYIDNVVIRHIDNQGDKAIFHGELRGIQGDKHFTFHVELRIRVVNGVIHEMEIIIR", "protease stability score": 2.05}
{"sequence": "SEYYEESKRMAEEHQHMRETGDEDRLRHLMDPTTKVEVGDKEFHGREWWHEFYKRFDHIEFRIHDIKLIDGVAIIQSIIIVRQGDKSDTLHVTIRITKVNGRWRTKSFEVI", "protease stability score": 1.48}
{"sequence": "DEKTEKEQRWFEEILHAILTGDEEFLLRNADPNTRSHFNGRDVHGMELLSEIWTKHVEDLGFDHAHIRSVKVFDGRFILNMQIHVNGVELDVHLIYDVVDGVVKRVIVETHKH", "protease stability score": 0.442}
{"sequence": "QEELDIAREMIKMWTHHLETGDEEVTKHLADPTTRFIIDGVTYHGMHNTVRLWLEIRSHSRIRIRFVEVQGNKVNSDVELEYDLIVGEKTDTIIRRSHLYLHKVDGRWRIKEIEFR", "protease stability score": 1.12}
{"sequence": "DELEHLERQLAEEILEDFMTGNEENFDHLADPNVKHDINGVEIIGREHYVEWWRRIKNVKIELKRYHIIGDKATIDGHEVFEGRRHKMILELDIVNGQIKRVRFELR", "protease stability score": 0.986}
{"sequence": "DEERRSSEEYVRTLHDIIRTGDEDRLVRLADPHARLEVGEFHFHGREELEHFWRKIIEHFGHDKIEVRIESVEVQGEKIVNVGKLSVNGQEREIIFIALKYNGRWITRSIHLH", "protease stability score": 1.59}
{"sequence": "DEREEESERWVRLLLHYLLTGDFRRIEELVDPNARSIIGDKRHHGREIVVEWMTRYKNARVEVKDFHIQGDKLQLHVEVQIDGRTFKLDIELYKVNGKWLLRTLHVEEL", "protease stability score": 1.44}
{"sequence": "DEEEKVVFELLRLFITAWETGDEDVLLRLADPNVRMTIGDKHYHGMEHFSHVYLLIFEELRITVKVHDIRIIGDKAYVDVEERRHQGDKSWKYRTHYEFEKIDGRWKLRRVEVK", "protease stability score": 2.54}
{"sequence": "SEDEHEALKVSEQFIRDLLTGDEDTFNRLADPNTRSEVGNKRQHGMDEVTHLWKELRIEDFTLRDQKIRIIGDKAEIDMDGEMVIIVNGKRVVQRVTLHLRVRKINGRWILHSIKLHIE", "protease stability score": 1.3}
